Source: article PMC10318464, “A CsoR family transcriptional regulator, TTHA1953, controls the sulfur oxidation pathway in Thermus thermophilus HB8” (The Journal of Biological Chemistry, 2023)

T1: TTHA1953 (Thermus thermophilus HB8, UniProt Q5SGX7 1-93)
T1 sequence: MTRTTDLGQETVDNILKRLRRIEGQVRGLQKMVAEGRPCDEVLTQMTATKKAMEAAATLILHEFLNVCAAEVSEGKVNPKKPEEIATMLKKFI

B1: TTHA1953, CsoR-like protein from Thermus thermophilus HB8 (natural protein, UniProt Q5SGX7 1-93, looked up)
chain: MTRTTDLGQETVDNILKRLRRIEGQVRGLQKMVAEGRPCDEVLTQMTATKKAMEAAATLILHEFLNVCAAEVSEGKVNPKKPEEIATMLKKFI
notes: TTHA1953, CsoR-like protein of Thermus thermophilus HB8; expression vector TEx04A02 bought from RIKEN BioResource Research Center; has two cysteines (C39, C68); No tag is mentioned; Estimated homo-octamer weight 83 kDa, so about 10 kDa a chain; also called CsoR family transcriptional regulator; source: E. coli Rosetta 2 (DE3), purified (1 M NaCl extraction of the pellet after sonication, 70 °C …)
B2: ST2_1953_mt8 (spacer -1) (dsDNA)
DNA 1: CTAGGAATTCGTGCAGAGGTGATACTATACCTGGTATGGTACATCCCTCCAGAAGCTTGGAC
DNA 2: GTCCAAGCTTCTGGAGGGATGTACCATACCAGGTATAGTATCACCTCTGCACGAATTCCTAG
B3: Control (dsDNA)
DNA 1: CCTCTCTATGGGCAGTCGGTGATCTAGGAATTCGTGCAGAGGTGACGTCATAGAATTCGCATCCCTCCAGAAGCTTGGAC
DNA 2: GTCCAAGCTTCTGGAGGGATGCGAATTCTATGACGTCACCTCTGCACGAATTCCTAGATCACCGACTGCCCATAGAGAGG
B4: ST2_1953_mt9 (dsDNA)
DNA 1: CTAGGAATTCGTGCAGAGGTGAGCTTATACCTTGTGCTGGTACATCCCTCCAGAAGCTTGGAC
DNA 2: GTCCAAGCTTCTGGAGGGATGTACCAGCACAAGGTATAAGCTCACCTCTGCACGAATTCCTAG
B5: ST2_1953_mt10 (dsDNA)
DNA 1: CTAGGAATTCGTGCAGAGGTGAGCTTAGCTCTTGGTATGGTACATCCCTCCAGAAGCTTGGAC
DNA 2: GTCCAAGCTTCTGGAGGGATGTACCATACCAAGAGCTAAGCTCACCTCTGCACGAATTCCTAG
B6: ST2_1953_mt7 (spacer +1) (dsDNA)
DNA 1: CTAGGAATTCGTGCAGAGGTGATACTATACCTCTGGTATGGTACATCCCTCCAGAAGCTTGGAC
DNA 2: GTCCAAGCTTCTGGAGGGATGTACCATACCAGAGGTATAGTATCACCTCTGCACGAATTCCTAG

Legend:
[1] = target: the molecule itself; test: non-reducing SDS-PAGE; 2 μg recombinant TTHA1953 treated with buffer, 10 mM CuCl2 or H2O2 for 20 min; Laemmli buffer with or without 350 mM β-mercaptoethanol; Coomassie staining
[2] = target: the molecule itself; test: native gel or EMSA; adaptation of a Ferguson plot; apparent weight of the TTHA1953 complex bound to its consensus-sequence DNA (Fig. S3)
[3] = target: T1, TTHA1953; test: BLI; 1 mM DTT; BLI: 20 mM Tris pH 7.5, 100 mM NaCl, 1 mM EDTA, 0.05% Tween-20, 1 mM DTT, 37 C; REPSA: 1x CutSmart, 1 mM DTT, 55 C 20 min then 37 C (REPA details not in materia); conditions: protein: recombinant; chain copies: 8; label: 5' biotin on ST2R strand; blunt
[4] = target: T1, TTHA1953; test: as above; conditions: protein: recombinant, chain copies: 8, blunt
[5] = label: 5' biotin on ST2R strand

Binder | Kd fold-change relative to consensus [3] | binding result [4, 5] | also measured
B1 |  |  | stoichiometry N [1]: 2; stoichiometry N [2]: 8
B2 | ~15 fold higher Kd than consensus |  | 
B3 |  |  | binding result ([4]; label: 5' IRDye800 on ControlL strand (REPA)): no binding
B4 |  | no binding | 
B5 |  | no binding | 
B6 | ~10 fold higher Kd than consensus |  | 
